Laboratory results taken from US20250026839A1 (OSE IMMUNOTHERAPEUTICS, published 2025).

Legend:
[1] = molecular target: Recombinant human TRIM21 protein, TRIM21-his (Sinobiological #18010-H07B) (human) (UniProt P19474); assay: competition ELISA, TRIM21-his coated, antibody in excess (20 µg/ml), competitor biotinylated Fc-CLEC1 in dose response
[2] = molecular target: Recombinant human TRIM21 protein, TRIM21-his (Sinobiological #18010-H07B) (human) (UniProt P19474); assay: antagonist assay of FIG. 6A against a control antibody; format not stated; competitor CLEC-1
[3] = molecular target: T1, Recombinant human TRIM21 protein, TRIM21-his (Sinobiological #18010-H07B) (human, UniProt P19474 1-475); assay: ELISA, TRIM21-his coated, biotinylated Fc-CLEC1 in dose response, streptavidin-peroxidase
T1 construct: Bought, produced in baculovirus; coated on ELISA plates or immobilised on a CM5 chip; not shown: his tag
T1 sequence (P19474 whole entry): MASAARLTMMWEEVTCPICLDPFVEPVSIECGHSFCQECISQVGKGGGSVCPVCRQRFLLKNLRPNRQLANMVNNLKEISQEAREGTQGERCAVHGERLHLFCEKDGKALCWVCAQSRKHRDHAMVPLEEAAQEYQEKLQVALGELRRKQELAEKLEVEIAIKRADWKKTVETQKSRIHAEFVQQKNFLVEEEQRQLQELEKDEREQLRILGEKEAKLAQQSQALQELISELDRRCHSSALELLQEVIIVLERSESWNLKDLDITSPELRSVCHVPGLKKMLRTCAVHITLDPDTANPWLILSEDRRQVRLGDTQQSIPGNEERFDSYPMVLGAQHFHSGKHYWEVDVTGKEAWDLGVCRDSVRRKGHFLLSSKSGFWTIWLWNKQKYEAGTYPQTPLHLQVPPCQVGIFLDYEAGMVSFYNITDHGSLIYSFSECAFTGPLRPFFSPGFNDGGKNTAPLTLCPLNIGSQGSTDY
Source text: (§1) Plate was saturated with superblock buffer (#37515, Thermofisher).

[4] = molecular target: T2, endogenous TRIM21 from whole cell extracts (RAJI, MoDC, HPB-ALL cells) (human, UniProt P19474 1-475); assay: co-immunoprecipitation from RAJI whole cell extract, anti-TRIM21 Western blot (FIG. 3A); supernatant not depleted of TRIM21 (FIG. 3B)
T2 construct: Endogenous cellular protein of human cell lines and monocyte derived dendritic cells, not a recombinant construct; also called TRIM21 E3 Ubiquitin-protein Ligase; cellular endogenous TRIM-21
T2 sequence (P19474 whole entry): as above
Source text: FIG. 3: Co-immunoprecipitation of TRIM21 with CLEC-1A.
The experiment was repeated using Monocyte derived Dendritic Cells (MoDC) protein extracts as starting endogenous protein mix.

[5] = molecular target: T1, Recombinant human TRIM21 protein, …; assay: ELISA, TRIM21-his coated, biotinylated Fc in dose response (FIG. 4A)
Source text: as §1

[6] = molecular target: T1, Recombinant human TRIM21 protein, …; assay: ELISA, TRIM21-his coated, biotinylated His-CLEC1 in dose response, streptavidin-peroxidase

Sequence of Recombinant human TRIM21 protein, TRIM21-his (Sinobiological #18010-H07B) (human) (P19474 whole entry): as above

| Molecule | percent decrease of the Fc-CLEC1/TRIM21 interaction [1] [%] | further results |
| --- | --- | --- |
| anti-TRIM21 antibody PA5-22294 (Fisher / Invitrogen) | 50 |  |
| anti-TRIM21 antibody Fisher PA5-22295 |  | percent reduction of the binding between CLEC-1 and TRIM21 [2]: 65% |
| anti-TRIM21 antibody PA5-18147 (Fisher) | 50 |  |
| Soluble Clec1-human IgG Fc chimera (Fc-Clec-1) (Fc fusion, biotinylated in the ELISA experiments (sites not given), domain: Fc; also called Fc-CLEC-1A; Fc-CLEC1A) DKTHTCPPCPAPPVAGGPSVFLFPPKPKDTLMISRTPEVTCVVVDVSHEDPEVKFNWYVDGVEVHNAKTKPREEQYNSTYRVVSVLTVLHQDWLNGKEYKCKVSNKGLPSSIEKTISKAKGQPREPQVYTLPPSRDELTKNQVSLTCLVKGFYPSDIAVEWESNGQPENNYKTTPPVLDSDGSFFLYSKLTVDKSRWQQGNVFSCSVMHEALHNHYTQKSLSLSPGKQYYQLSNTGQDTISQMEERLGNTSQELQSLQVQNIKLAGSLQHVAEKLCRELYNKAGAHRCSPCTEQWKWHGDNCYQFYKDSKSWEDCKYFCLSENSTMLKINKQEDLEFAASQSYSEFFYSYWTGLLRPDSGKAWLWMDGTPFTSELFHIIIDVTSPRSRDCVAILNGMIFSKDCKELKRCVCERRAGMVKPESLHVPPETLGEGD |  | EC50 [3]: 15 µg/mL |
| Fc only (human IgG1-E3 Fc control) (other, UniProt P01857-1 104-330, looked up, biotinylated in the ELISA (sites not given), domain: Fc; also called Fc alone; Fc-biot control) DKTHTCPPCPAPPVAGGPSVFLFPPKPKDTLMISRTPEVTCVVVDVSHEDPEVKFNWYVDGVEVHNAKTKPREEQYNSTYRVVSVLTVLHQDWLNGKEYKCKVSNKGLPSSIEKTISKAKGQPREPQVYTLPPSRDELTKNQVSLTCLVKGFYPSDIAVEWESNGQPENNYKTTPPVLDSDGSFFLYSKLTVDKSRWQQGNVFSCSVMHEALHNHYTQKSLSLSPGK |  | binding result [4]: no binding; binding result [5]: no binding (tested: 30 µg/ml) |
| His-CLEC1 (Biotechne #1704-CL) (receptor, biotinylated in the ELISA experiments (sites not given), Bought recombinant protein produced in NS0 cells; also called His-CLEC1A; His-CLEC-1A; not shown: His tag) QYYQLSNTGQDTISQMEERLGNTSQELQSLQVQNIKLAGSLQHVAEKLCRELYNKAGAHRCSPCTEQWKWHGDNCYQFYKDSKSWEDCKYFCLSENSTMLKINKQEDLEFAASQSYSEFFYSYWTGLLRPDSGKAWLWMDGTPFTSELFHIIIDVTSPRSRDCVAILNGMIFSKDCKELKRCVCERRAGMVKPESLHVPPETLGEGD |  | EC50 [6]: 13 µg/mL |

Continued, in another order:

| percent decrease of the Fc-CLEC1/TRIM21 interaction [1] [%] | Molecule | further results |
| --- | --- | --- |
| 50 | anti-TRIM21 antibody MAB6219 (Biotechne) |  |
| 50 | anti-TRIM21 antibody MAB62191 (Biotechne) |  |
| 50 | anti-TRIM21 antibody sc-25351 (Santacruz) |  |
